The values that follow come from patent publication US7223734B2, “Plasma protein-binding ligands” (The American National Red Cross, priority 2002, dated 2007).

One test has as its target T1, fibrinogen (Homo sapiens, UniProt P02671+P02675+P02679).
T1 construct: from tissue; host or cells: human plasma
T1 sequence (P02671 20-629 limits assumed): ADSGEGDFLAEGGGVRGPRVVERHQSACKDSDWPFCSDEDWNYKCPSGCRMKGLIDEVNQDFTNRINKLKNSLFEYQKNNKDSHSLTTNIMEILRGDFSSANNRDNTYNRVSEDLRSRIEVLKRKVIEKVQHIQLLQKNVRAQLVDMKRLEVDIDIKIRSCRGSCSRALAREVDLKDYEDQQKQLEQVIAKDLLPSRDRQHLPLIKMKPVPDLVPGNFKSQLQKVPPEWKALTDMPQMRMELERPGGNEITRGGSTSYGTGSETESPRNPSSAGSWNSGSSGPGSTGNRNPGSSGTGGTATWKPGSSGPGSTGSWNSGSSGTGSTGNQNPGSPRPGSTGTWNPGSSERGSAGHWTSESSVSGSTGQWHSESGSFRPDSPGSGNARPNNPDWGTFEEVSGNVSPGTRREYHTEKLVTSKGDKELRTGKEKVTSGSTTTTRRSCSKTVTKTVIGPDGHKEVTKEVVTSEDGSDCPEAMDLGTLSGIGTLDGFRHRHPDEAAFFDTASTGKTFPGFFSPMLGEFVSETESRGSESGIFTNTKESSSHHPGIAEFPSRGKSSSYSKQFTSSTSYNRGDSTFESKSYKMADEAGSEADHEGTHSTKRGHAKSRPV
T1 sequence (P02675 31-491): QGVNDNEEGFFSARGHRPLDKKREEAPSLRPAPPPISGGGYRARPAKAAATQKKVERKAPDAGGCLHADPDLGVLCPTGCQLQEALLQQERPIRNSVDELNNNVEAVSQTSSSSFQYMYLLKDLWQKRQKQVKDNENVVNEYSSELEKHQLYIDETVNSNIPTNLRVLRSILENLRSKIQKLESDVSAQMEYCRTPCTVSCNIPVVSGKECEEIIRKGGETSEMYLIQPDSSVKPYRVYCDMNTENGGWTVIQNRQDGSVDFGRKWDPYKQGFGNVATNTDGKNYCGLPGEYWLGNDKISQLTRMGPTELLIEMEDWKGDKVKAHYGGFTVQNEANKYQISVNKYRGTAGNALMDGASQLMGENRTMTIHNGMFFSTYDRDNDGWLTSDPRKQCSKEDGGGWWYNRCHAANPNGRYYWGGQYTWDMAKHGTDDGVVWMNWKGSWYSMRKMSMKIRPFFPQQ
T1 sequence (P02679 27-433 limits assumed): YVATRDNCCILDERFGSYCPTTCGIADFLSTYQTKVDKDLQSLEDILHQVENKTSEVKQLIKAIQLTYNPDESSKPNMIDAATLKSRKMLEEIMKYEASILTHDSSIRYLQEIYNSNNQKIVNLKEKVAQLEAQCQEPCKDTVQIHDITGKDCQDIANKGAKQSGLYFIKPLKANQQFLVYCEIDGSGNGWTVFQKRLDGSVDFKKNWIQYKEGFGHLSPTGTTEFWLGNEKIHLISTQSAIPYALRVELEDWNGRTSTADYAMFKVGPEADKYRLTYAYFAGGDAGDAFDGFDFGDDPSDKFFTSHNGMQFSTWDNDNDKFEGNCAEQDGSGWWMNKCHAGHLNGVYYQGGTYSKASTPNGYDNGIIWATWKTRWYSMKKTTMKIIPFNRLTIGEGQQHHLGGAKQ
In words: Purification of fibrinogen from plasma on HWQ resin column (Example 3). The test is classed as binding. The procedure:
Five milliliters of plasma was applied at a flow rate of 0.2 ml/min. onto a 0.8 ml column (RT=4.0 min) containing a resin displaying the HWQ ligand, and was equilibrated with 0.14 M NaCl, 0.020M sodium citrate, pH 7.0 (EQ buffer). After washing the resin with EQ buffer and 0.5 M NaCl, pH 7.0, to baseline, the bound fibrinogen was eluted with 2.0 M NaCl, pH 7.0 or 0.3 M glycine, 0.5M NaCl, pH 9.0. All of the wash and elution buffers contained 0.020 M sodium citrate. […] However, dynamic resin capacities of 5–8 mg were reached. The resin was regenerated with 2 M guanidine-HCl, 2% Sarkosyl, 30% ethanol and 70% ethanol/2% acetic acid, followed by storage in 20% methanol.

For test [1], the system named is paraoxonase. The following applies: after 1 hour incubation with resin at 37° C.; rabbit serum diluted 1/10. As for the experimental part: Paraoxonase binding to a WWLHAN (SEQ ID NO: 56)-displaying resin was evaluated according to the following protocol. Rabbit serum diluted 1/10 times with PBS ([…]) was incubated in a rotating Eppendorf tube with 50 μl of D-WWLHAN (SEQ ID NO: 56)-displaying resin suspension containing approximately […] of resin. The resin was previously soaked in 20% methanol overnight and washed 3 times with PBS to remove the methanol traces and resuspended in paraoxonase assay buffer (20 mM Tris pH 8.0, 150 mM NaCl, and 2 mM CaCl2). After 1 hour incubation at 37° C., resin beads were precipitated by centrifugation at 8000 g for 1 min in an Eppendorf microcentrifuge. Supernatants were transferred into separate Eppendorf tubes and resin bead pellets were resuspended in equal volumes of paraoxonase assay buffer. Paraoxonase activity of resin bead suspensions and supernatant solutions was measured. In particular, 100 μl of paraoxonase assay buffer containing 100 μm of DEPFMU (a fluorogenic substrate for paraoxonase detection) was mixed with […] of supernatant or 10 μl of resin bead suspension, or the original serum solution in a standard microtiter plate well. After thorough mixing, the plate solution was incubated for 20 minutes at 37° C. Hydrolysis of DEPFMU was quantified by measuring the fluorescence level at […] using a commercial fluorometer. The level of fluorescence correlates with the level of 6,8-difluoro-4-methylumbelliferyl released from DEPFMU as a result of paraoxonase-mediated hydrolysis. The actual amount of 6,8-difluoro-4-methylumbelliferyl released in the assay can be calibrated with a known amount of 6,8-difluoro-4-methylumbelliferyl.
Several different D-WWLHIN (SEQ ID NO: 33) analogs were screened for the ability to bind to paraoxonase under the conditions described in Example 7. For this experiment, the following resins were tested: WWLHAN (SEQ ID NO: 56), AWLHIN (SEQ ID NO: 59), WALHIN (SEQ ID NO: 60), WWAHIN (SEQ ID NO: 61), WWLHIA (SEQ ID NO: 63), WYLHIN (SEQ ID NO: 35), WWLFIN (SEQ ID NO: 36), and na1′WLHIN (SEQ ID NO: 40).

Another test deals with T2, API (Homo sapiens, UniProt P01009).
T2 construct: from tissue; host or cells: human plasma (whole, fibrinogen-depleted or F1-Apo-depleted)
T2 sequence (P01009 25-418): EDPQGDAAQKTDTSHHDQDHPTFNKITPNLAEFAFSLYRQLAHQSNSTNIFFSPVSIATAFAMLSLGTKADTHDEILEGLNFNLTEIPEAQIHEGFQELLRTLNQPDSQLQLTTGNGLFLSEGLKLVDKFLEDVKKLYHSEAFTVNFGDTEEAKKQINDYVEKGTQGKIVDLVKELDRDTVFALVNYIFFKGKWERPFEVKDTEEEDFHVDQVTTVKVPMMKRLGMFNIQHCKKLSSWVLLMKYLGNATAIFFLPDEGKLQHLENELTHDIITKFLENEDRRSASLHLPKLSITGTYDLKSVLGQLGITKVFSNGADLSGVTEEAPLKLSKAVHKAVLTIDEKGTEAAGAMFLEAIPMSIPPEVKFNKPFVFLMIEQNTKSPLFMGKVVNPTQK
In words: Preparation of fibrinogen- and Apo-A1-depleted plasma: API in flow-through (Example 5). The test is classed as binding. The following applies: after chromatography on the named resin. As for the experimental part:
(§1) Toyopearl AF Amino 650M resin displaying a peptide consisting essentially of the amino acid sequence D-ARQFDF (SEQ ID NO: 20) was suspended for 2 hours in 20% methanol. After washing with distilled water, the resin was packed into an Omni column (column volume (CV)=10 ml; diameter 1.5 cm; CF 1.77 cm^2) and equilibrated in 0.14 M NaCl, 0.020 M sodium citrate, pH 7.0 (EQ buffer). Fifty milliliters of filtered plasma (0.80 mm, Nalgene CN, Cat. No. 380-0080; 0.45 μm, Corning CA, Cat. No. 431155; 0.20 μm, Nalgene PES, Cat. No. 165-0020) were loaded on the Omni columns at a linear velocity (LV) of 50 cm/H (flow rate (FR)=1.5 ml/min; residence time (RT)=6.7 minutes). The flow-through was collected in column volumes. After pooling fibrinogen-depleted plasma (50 ml), the flow-through was loaded onto a column comprising a resin displaying an Apo-A1 lipoprotein-binding ligand (D-WWLHIN (SEQ ID NO: 33)), as described below. The fibrinogen-binding column was washed with 12 CVs of EQ buffer and the fibrinogen eluted with 10 CVs of 0.3 M glycine, 0.5 M NaCl, pH 9.0. The column was regenerated with 10 CVs of 2% Sarkosyl, pH 8.0, followed by 10 CVs of 2.0 M guanidine (GuHCl). After washing with 5 CVs of distilled water, the column was further cleaned with 6 CVs of 30% ethanol and 6 CVs of 70% ethanol containing 2% acetic acid. […]

The subject of test [2] is paraoxonase. The following applies: without use of detergent.
Description: Paraoxonase, or any plasma protein, can be recovered from the isolated or purified peptide of the invention coupled to a bead (i.e., a support) by several different approaches, including washing beads with buffers with high and low ionic strength, high and low pH, or buffers comprising up to 50% of ethylene glycol and different detergents.
In test [3] the test system is Apo-A1 lipoprotein. Description: Preparation of fibrinogen- and Apo-A1-depleted plasma: Apo-A1 in flow-through (Example 5). The conditions noted are these: nephelometry and SDS-PAGE analysis. It counts as binding, human. The procedure: as §1
Test [4] has as its target T3, Apo-A1 lipoprotein (Homo sapiens, UniProt P02647).
T3 construct: from tissue; host or cells: human plasma (whole or fibrinogen-depleted)
Description: Apo-A1 lipoprotein purification from fibrinogen-depleted plasma on peptide resin column (Example 4). It counts as binding. The procedure: Apo-A1 lipoprotein purification was accomplished with D-WWLHIN (SEQ ID NO: 33) peptides and several analogs. Indeed, about 100% Apo-A1 lipoprotein depletion from plasma was repeatedly obtained with D-WWLHAN (SEQ ID NO: 56) and D-WWLHIN (SEQ ID NO: […]). Fourteen milliliters of fibrinogen-depleted plasma was loaded onto a 2.3 ml column (CF=0.785 cm^2) at 0.4 ml/min. (LV=30 cm/H; RT=5.8) that had been equilibrated with 0.14 M NaCl, 0.020 M sodium citrate, pH 7.0 (EQ buffer). After the column was washed with EQ buffer to baseline, Apo-A1 lipoprotein was eluted with 2.0 M NaCl, 1% Tween-20, 0.020M sodium citrate, pH 7.0. The column was regenerated with 2.0 M guanidine-HCl, 2% Sarkosyl, and 2% acetic acid and stored in 20% methanol.

Non-standard residues stand in square brackets, D forms with d. No end group written: not given here.

T3 sequence (P02647 25-267 limits assumed): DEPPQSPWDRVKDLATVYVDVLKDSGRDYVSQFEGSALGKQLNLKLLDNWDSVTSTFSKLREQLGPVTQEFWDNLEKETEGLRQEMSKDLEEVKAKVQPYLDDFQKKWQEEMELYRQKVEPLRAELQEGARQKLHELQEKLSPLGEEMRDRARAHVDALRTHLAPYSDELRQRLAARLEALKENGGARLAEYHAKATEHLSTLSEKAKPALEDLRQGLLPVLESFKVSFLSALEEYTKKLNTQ

Turning to HWQ, the “elution of bound fibrinogen” value with fibrinogen (2.0 M NaCl, pH 7.0 or 0.3 M glycine, 0.5M NaCl, pH 9.0) is given as “Complete elution of fibrinogen was not achieved”. This substance also had a dynamic resin capacities with fibrinogen (5 ml plasma on 0.8 ml column) of 5 to 8 mg.

For the substance “WWLHAN ([dW]WLHAN; not fully specified (residues 2, 3, 4, 5, 6)) [D-WWLHAN]”, the “original paraoxonase activity remaining in the serum” value with paraoxonase [1] is listed as “less than 4%”. The “API recovered in the flow-through” value with API is 90–95%. In addition, the “paraoxonase activity eluted from the beads into the supernatant” value with paraoxonase [2] was “No paraoxonase activity was eluted”. In the test on Apo-A1 lipoprotein [3], the “Apo-A1 lipoprotein detection after treating with the resin” value is “no Apo-A1 lipoprotein could be detected”. The “Apo-A1 lipoprotein depletion from plasma” value with Apo-A1 lipoprotein [4] is on record as “about 100%”.
